Here are results for one substance from US20230183338A1.

In general, Kd refers to the free concentration of one partner at which half of the binding sites on the other are occupied at equilibrium, for simple one-to-one binding.

The assay addresses VEEV p62-E1 (Venezuelan equine encephalitis virus, TrD strain) (UniProt P09592). Description: surface plasmon resonance (Biacore T200), […]. (In general: Surface plasmon resonance follows binding to a sensor surface in real time, without labels.)

As for “HRV-cleaved monovalent LDLRAD3(D1) (from UniProt A2AR95 18-70) (receptor)”, the Kd came to 0.209 µM.
